# Results taken from patent publication US20220411483A1 (Chugai, published 2022).
# Where a chain is given by its changes, count along the chain named.
# B1: IL6R-BP195/IL6R-L (antibody, human IgG1, kappa, name in EU numbering)
# heavy: QVQLQESGPGLVKPSETLSLTCAVSGHSISHDHAWSWVRQPPGEGLEWIGFISYSGITNYNPSLQGRVTISRDNSKNTLYLQMNSLRAEDTAVYYCARSLARTTAMDYWGEGTLVTVSSASTKGPSVFPLAPSSKSTSGGTAALGCLVKDYFPEPVTVSWNSGALTSGVHTFPAVLQSSGLYSLSSVVTVPSSSLGTQTYICNVNHKPSNTKVDKKVEPKSCDKTHTCPPCPAPDYLGDDSVFLFPPKPKDTLMISRTPEVTCVVVDVSDEDGEVKFNWYVDGVEVHNAKTKPREEQDNSTYRVVSVLTVLHQDWLNGKEYKCKVSNAALPKPIEKTISKAKGQPREPQVYTLPPSRDELTKNQVSLTCLVKGFYPSDIAVEWESNGQPENNYKTTPPVLDSDGSFFLYSKLTVDKSRWQQGNVFSCSVMHEALHNHYTQESLSLSP
# light: not shown
# notes: IgG1; alterations on IL6R-B3, EU numbering
# B2: IL6R-BP203/IL6R-L (antibody, human IgG1, kappa, name in EU numbering)
# heavy: B1 heavy with D235E, Y236L, D270H, D298Y, A328K, K332R
# light: not shown
# notes: as for B1
# B3: IL6R-BP191/IL6R-L (antibody, human IgG1, kappa, name in EU numbering)
# heavy: B1 heavy with Y236L, D239G, D298Y
# light: not shown
# notes: as for B1
# B4: IL6R-BP187/IL6R-L (antibody, human IgG1, kappa, name in EU numbering)
# heavy: B1 heavy with D235E, D239G, D270H, D298Y
# light: not shown
# notes: as for B1
# B5: IL6R-BP192/IL6R-L (antibody, human IgG1, kappa, name in EU numbering)
# heavy: B1 heavy with Y236L, D239G, A328K
# light: not shown
# notes: as for B1
# B6: IL6R-BP201/IL6R-L (antibody, human IgG1, kappa, name in EU numbering)
# heavy: B1 heavy with Y236L, D270H, D298Y, A328K, K332R
# light: not shown
# notes: as for B1
# B7: IL6R-BP151/IL6R-L (antibody, human IgG1, kappa, name in EU numbering)
# heavy: B1 heavy with D270H, G273P, D298Y, K332R
# light: not shown
# notes: as for B1
# B8: IL6R-BP084/IL6R-L (antibody, human IgG1, kappa, name in EU numbering)
# heavy: B1 heavy with D235E, Y236L, D239G, D270H, G273P, D298Y, V325M, A328K
# light: not shown
# notes: as for B1
# B9: IL6R-BP239/IL6R-L (antibody, human IgG1, kappa, name in EU numbering)
# heavy: B1 heavy with S269Q, K332R
# light: not shown
# notes: as for B1
# B10: IL6R-BP206/IL6R-L (antibody, human IgG1, kappa, name in EU numbering)
# heavy: B1 heavy with Y236L, D239G, D270H, D298Y, A328K, K332R
# light: not shown
# notes: as for B1
# B11: IL6R-BP130/IL6R-L (antibody, human IgG1, kappa, name in EU numbering)
# heavy: B1 heavy with Y236L, D239G, D270H, G273P, D298Y, V325M, A328K
# light: not shown
# notes: as for B1
# B12: IL6R-BP237/IL6R-L (antibody, human IgG1, kappa, name in EU numbering)
# heavy: B1 heavy with S269Q
# light: not shown
# notes: as for B1
# B13: IL6R-BP228/IL6R-L (antibody, human IgG1, kappa, name in EU numbering)
# heavy: B1 heavy with D235E, S269Q, D298Y, A328D, K332R
# light: not shown
# notes: as for B1
# B14: IL6R-BP209/IL6R-L (antibody, human IgG1, kappa, name in EU numbering)
# heavy: B1 heavy with D235E, Y236L, D298Y, K332R
# light: not shown
# notes: as for B1
# B15: IL6R-2B261/IL6R-L (antibody, human IgG1, kappa, name in EU numbering)
# heavy: B1 heavy with Y236L, D239G, D270H, G273P, A328K, K332A
# light: not shown
# notes: as for B1
# B16: IL6R-BP243/IL6R-L (antibody, human IgG1, kappa, name in EU numbering)
# heavy: B1 heavy with D298Y, A328K, K332R
# light: not shown
# notes: as for B1
# B17: IL6R-BP182/IL6R-L (antibody, human IgG1, kappa, name in EU numbering)
# heavy: B1 heavy with Y236L, D239G, D270H, A328K
# light: not shown
# notes: as for B1
# B18: IL6R-BP220/IL6R-L (antibody, human IgG1, kappa, name in EU numbering)
# heavy: B1 heavy with Y236L, A328K
# light: not shown
# notes: as for B1
# B19: IL6R-BP233/IL6R-L (antibody, human IgG1, kappa, name in EU numbering)
# heavy: B1 heavy with D235E, D270H, D298Y, A328K
# light: not shown
# notes: as for B1
# B20: IL6R-BP189/IL6R-L (antibody, human IgG1, kappa, name in EU numbering)
# heavy: B1 heavy with D235E, Y236L, D298Y
# light: not shown
# notes: as for B1
# B21: IL6R-BP202/IL6R-L (antibody, human IgG1, kappa, name in EU numbering)
# heavy: B1 heavy with D235E, Y236L, D270H, D298Y, K332R
# light: not shown
# notes: as for B1
# B22: IL6R-BP180/IL6R-L (antibody, human IgG1, kappa, name in EU numbering)
# heavy: B1 heavy with D235E, Y236L, D270H, D298Y, A328K
# light: not shown
# notes: as for B1
# B23: IL6R-BP246/IL6R-L (antibody, human IgG1, kappa, name in EU numbering)
# heavy: B1 heavy with Y236L, S269Q, K332R
# light: not shown
# notes: as for B1
# B24: IL6R-2B044/IL6R-L (antibody, human IgG1, kappa)
# heavy: B1 heavy with D235E, Y236L, D239G, F243L, D270H, G273P, D298Y, A328K, K332A
# light: not shown
# B25: IL6R-2B124/IL6R-L (antibody, human IgG1, kappa)
# heavy: B1 heavy with D235E, Y236L, D239G, D270H, G273P, Q297V, D298Y, A328K, K332A
# light: not shown
# B26: IL6R-2B118/IL6R-L (antibody, human IgG1, kappa)
# heavy: B1 heavy with D235E, Y236L, D239G, D270H, G273P, Q297M, D298Y, A328K, K332A
# light: not shown
# B27: IL6R-2B045/IL6R-L (antibody, human IgG1, kappa)
# heavy: B1 heavy with D235E, Y236L, D239G, F243M, D270H, G273P, D298Y, A328K, K332A
# light: not shown
# B28: IL6R-2B128/IL6R-L (antibody, human IgG1, kappa)
# heavy: B1 heavy with D235E, Y236L, D239G, D270H, G273P, A328K, K332A
# light: not shown
# B29: IL6R-2B132/IL6R-L (antibody, human IgG1, kappa)
# heavy: B1 heavy with D235E, Y236L, D239G, D270H, G273P, D298H, A328K, K332A
# light: not shown
# B30: IL6R-2B145/IL6R-L (antibody, human IgG1, kappa)
# heavy: B1 heavy with D235E, Y236L, D239G, D270H, G273P, D298Y, S300A, A328K, K332A
# light: not shown
# B31: IL6R-2B129/IL6R-L (antibody, human IgG1, kappa)
# heavy: B1 heavy with D235E, Y236L, D239G, D270H, G273P, D298E, A328K, K332A
# light: not shown
# B32: IL6R-2B137/IL6R-L (antibody, human IgG1, kappa)
# heavy: B1 heavy with D235E, Y236L, D239G, D270H, G273P, D298N, A328K, K332A
# light: not shown
# B33: IL6R-2B154/IL6R-L (antibody, human IgG1, kappa)
# heavy: B1 heavy with D235E, Y236L, D239G, D270H, G273P, D298Y, S300M, A328K, K332A
# light: not shown
# B34: IL6R-2B169/IL6R-L (antibody, human IgG1, kappa)
# heavy: B1 heavy with D235E, Y236L, D239G, D270H, G273P, D298Y, V325I, A328K, K332A
# light: not shown
# Molecular target: T1, FcγRIIa R type extracellular domain with C-terminal His tag (human, UniProt P12318 34-217)
# T1 construct: extracellular domain; also called FcgRIIaR
# T1 sequence (looked up): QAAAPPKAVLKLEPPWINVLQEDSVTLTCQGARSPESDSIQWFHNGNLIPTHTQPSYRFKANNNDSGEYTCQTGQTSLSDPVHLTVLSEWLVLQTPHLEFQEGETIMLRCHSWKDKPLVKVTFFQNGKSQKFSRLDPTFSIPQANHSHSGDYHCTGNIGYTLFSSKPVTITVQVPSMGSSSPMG
# Assay: SPR (Biacore), FcgR as analyte
row,Binder,Kd
1,B1,910 nM
2,B2,990 nM
3,B3,3000 nM
4,B4,2800 nM
5,B5,2600 nM
6,B6,840 nM

# Molecular target: T2, FcγRIIb extracellular domain with C-terminal His tag (human, UniProt P31994 43-217)
# T2 construct: extracellular domain; also called FcgRIIb
# T2 sequence (looked up): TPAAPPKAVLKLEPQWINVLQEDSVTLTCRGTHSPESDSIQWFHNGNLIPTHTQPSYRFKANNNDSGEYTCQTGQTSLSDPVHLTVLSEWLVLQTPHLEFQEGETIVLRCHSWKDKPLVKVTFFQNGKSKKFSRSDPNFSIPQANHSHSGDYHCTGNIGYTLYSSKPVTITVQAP
# Assay: SPR (Biacore), FcgR as analyte
row,Binder,Kd
1,B7,40 nM
2,B8,500 nM
3,B9,60 nM
4,B1,50 nM
5,B10,200 nM
6,B11,300 nM
7,B12,100 nM
8,B13,40 nM
9,B14,51 nM
10,B15,1000 nM
11,B6,40 nM

# Molecular target: T3, FcγRIa extracellular domain with C-terminal His tag (human, UniProt P12314 16-292)
# T3 construct: also called FcgRIa
# Assay: SPR (Biacore), FcgR as analyte
# T3 sequence (P12314 16-292): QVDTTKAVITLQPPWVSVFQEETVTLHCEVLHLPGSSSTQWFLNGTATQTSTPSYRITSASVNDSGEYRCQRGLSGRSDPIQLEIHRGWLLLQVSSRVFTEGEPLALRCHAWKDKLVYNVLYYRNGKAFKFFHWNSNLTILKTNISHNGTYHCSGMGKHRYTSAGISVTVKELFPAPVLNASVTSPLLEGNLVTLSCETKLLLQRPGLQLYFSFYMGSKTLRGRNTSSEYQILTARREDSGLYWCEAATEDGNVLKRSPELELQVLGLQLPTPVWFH
row,Binder,Kd
1,B16,3 nM
2,B17,10 nM
3,B18,20 nM
4,B8,7 nM
5,B19,70 nM
6,B20,42 nM
7,B2,180 nM
8,B21,95 nM
9,B14,39 nM
10,B22,98 nM
11,B15,9 nM
12,B3,4 nM
13,B4,25 nM
14,B23,8 nM
15,B5,6.6 nM

# Molecular target: T4, FcγRIIa R type extracellular domain, His tag (human, UniProt P12318 34-217)
# T4 construct: extracellular domain; also called FcgRIIaR
# T4 sequence (looked up): T1 sequence (looked up)
# Assay: SPR, bound amount per captured antibody
row,Binder,Relative FcgRIIaR-binding Activity
1,B24,55.7 % of IL6R-BF648/IL6R-L
2,B25,65.2 % of IL6R-BF648/IL6R-L
3,B26,93.4 % of IL6R-BF648/IL6R-L
4,B27,64.7 % of IL6R-BF648/IL6R-L
5,B28,88.1 % of IL6R-BF648/IL6R-L
6,B29,66.9 % of IL6R-BF648/IL6R-L
7,B30,45.1 % of IL6R-BF648/IL6R-L
8,B31,68.4 % of IL6R-BF648/IL6R-L
9,B32,77.7 % of IL6R-BF648/IL6R-L
10,B33,77.5 % of IL6R-BF648/IL6R-L
11,B34,90.8 % of IL6R-BF648/IL6R-L

# Molecular target: T5, FcγRIIb extracellular domain, His tag (human, UniProt P31994 43-217)
# T5 construct: extracellular domain; also called FcgRIIb
# T5 sequence (looked up): T2 sequence (looked up)
# Assay: SPR, bound amount per captured antibody
row,Binder,Relative FcgRIIb-binding Activity
1,B24,65.5 % of IL6R-BF648/IL6R-L
2,B25,72.9 % of IL6R-BF648/IL6R-L
3,B26,96.3 % of IL6R-BF648/IL6R-L
4,B27,81.1 % of IL6R-BF648/IL6R-L
5,B28,102 % of IL6R-BF648/IL6R-L
6,B29,89.1 % of IL6R-BF648/IL6R-L
7,B30,55.5 % of IL6R-BF648/IL6R-L
8,B31,93.3 % of IL6R-BF648/IL6R-L
9,B32,98.3 % of IL6R-BF648/IL6R-L
10,B33,79.4 % of IL6R-BF648/IL6R-L
11,B34,103 % of IL6R-BF648/IL6R-L
